Results reported in US20200190136A1, “METHODS FOR GENERATING SMALL MOLECULE DEGRADERS AND DIMERIZERS” (DANA-FARBER CANCER INSTITUTE, INC., priority 2017, published 2020).

How the values were obtained:
[1] = target: His6-DDB1ΔB-His6-CRBN complex (human) (UniProt Q16531); experiment: FP lenalidomide-Atto565 displacement from DDB1ΔB-CRBN, dBET6, with and without BRD4BD2
[2] = target: His6-DDB1ΔB-His6-CRBN complex (human) (UniProt Q16531); experiment: FP lenalidomide-Atto565 displacement from DDB1ΔB-CRBN, dBET23, with and without BRD4BD2
[3] = target: His6-DDB1ΔB-His6-CRBN complex (human) (UniProt Q16531); experiment: FP lenalidomide-Atto565 displacement from DDB1ΔB-CRBN, dBET57, with and without BRD4BD2

His6-DDB1ΔB-His6-CRBN complex (human), sequence (Q16531 other isoform, or with tags, fused parts or gaps mutant, chain 1 of 2): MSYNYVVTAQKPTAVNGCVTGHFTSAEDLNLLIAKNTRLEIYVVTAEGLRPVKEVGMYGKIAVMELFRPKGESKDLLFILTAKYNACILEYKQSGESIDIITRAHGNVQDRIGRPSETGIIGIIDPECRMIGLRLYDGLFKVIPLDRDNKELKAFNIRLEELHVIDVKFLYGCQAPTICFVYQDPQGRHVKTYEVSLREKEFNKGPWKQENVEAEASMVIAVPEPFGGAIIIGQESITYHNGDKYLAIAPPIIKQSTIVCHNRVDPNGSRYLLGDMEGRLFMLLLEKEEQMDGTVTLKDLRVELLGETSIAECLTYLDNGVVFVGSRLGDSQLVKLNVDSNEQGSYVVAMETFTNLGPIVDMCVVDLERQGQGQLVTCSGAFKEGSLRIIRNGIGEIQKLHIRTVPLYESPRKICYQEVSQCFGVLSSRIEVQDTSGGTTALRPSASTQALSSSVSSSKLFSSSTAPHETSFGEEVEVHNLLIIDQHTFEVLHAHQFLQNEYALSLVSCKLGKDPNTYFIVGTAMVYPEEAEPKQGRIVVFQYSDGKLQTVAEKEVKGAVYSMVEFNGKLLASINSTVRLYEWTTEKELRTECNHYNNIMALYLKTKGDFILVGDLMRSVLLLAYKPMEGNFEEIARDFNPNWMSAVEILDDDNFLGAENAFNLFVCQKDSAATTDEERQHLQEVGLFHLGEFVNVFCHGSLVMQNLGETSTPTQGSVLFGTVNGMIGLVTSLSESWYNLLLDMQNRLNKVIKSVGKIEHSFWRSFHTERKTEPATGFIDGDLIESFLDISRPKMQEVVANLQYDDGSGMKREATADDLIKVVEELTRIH
His6-DDB1ΔB-His6-CRBN complex (human), sequence (Q96SW2 whole entry, stated change not applied, chain 2 of 2, further chain): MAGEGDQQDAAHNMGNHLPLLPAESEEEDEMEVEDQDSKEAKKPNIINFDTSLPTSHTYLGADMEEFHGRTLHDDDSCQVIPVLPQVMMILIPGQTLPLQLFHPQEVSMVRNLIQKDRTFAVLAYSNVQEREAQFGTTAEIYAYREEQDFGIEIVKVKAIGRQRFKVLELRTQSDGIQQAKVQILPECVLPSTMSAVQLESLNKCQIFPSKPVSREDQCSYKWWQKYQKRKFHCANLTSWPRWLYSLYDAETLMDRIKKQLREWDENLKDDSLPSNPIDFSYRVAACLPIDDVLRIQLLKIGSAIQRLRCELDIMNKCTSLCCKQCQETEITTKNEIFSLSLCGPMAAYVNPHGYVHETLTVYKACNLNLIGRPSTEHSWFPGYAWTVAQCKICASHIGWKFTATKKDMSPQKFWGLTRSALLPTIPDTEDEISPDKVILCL

BRD4BD2 (second bromodomain of human BRD4) (from UniProt O60885 333-460)
apparent cooperativity factor αapp (IC50[binary]/IC50[ternary]) [1]: 0.2 | apparent cooperativity factor αapp (IC50[binary]/IC50[ternary]) [2]: < 0.1 | apparent cooperativity factor αapp (IC50[binary]/IC50[ternary]) [3]: < 0.1
